{"source": "patent US20250382381A1", "target": "mouse ART2 (ART2.2) on T cells (mouse) (UniProt O35975)", "sequence (O35975 21-260)": "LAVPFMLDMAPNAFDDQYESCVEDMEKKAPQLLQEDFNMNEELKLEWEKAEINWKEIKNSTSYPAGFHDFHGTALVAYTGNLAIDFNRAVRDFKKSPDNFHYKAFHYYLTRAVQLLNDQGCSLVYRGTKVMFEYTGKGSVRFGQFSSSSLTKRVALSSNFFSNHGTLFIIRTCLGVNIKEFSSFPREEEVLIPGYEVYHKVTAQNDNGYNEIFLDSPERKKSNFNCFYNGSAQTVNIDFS", "assay": "cell-based or functional assay", "data": [{"substance": "ART2-blocking nanobody (s+16a) (VHH)", "values": [{"measurement": "ADP-ribosylation of CD4 T cells (eNAD staining, flow cytometry)", "result": 9.3, "unit": "%"}, {"measurement": "ADP-ribosylation of CD8 T cells (eNAD staining, flow cytometry)", "result": 12.9, "unit": "%"}]}]}
